What follows are sequences tested against Jak2 (UniProt O60674) (assay: phosphorylation enrichment, bacterial display (enrichment ratio); higher = better substrate or ligand; peptides without Tyr show the background).
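Also: 11-residue human phosphosite peptides and single-mutation variants displayed on the E. coli surface, counted by deep sequencing, each peptide's frequency after selection divided by its frequency in the unselected input library; frequency after pTyr selection over input frequency; kinase dosed for 20-30% of maximal phosphorylation in three min.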

Jak2, sequence (O60674 whole entry, looked up): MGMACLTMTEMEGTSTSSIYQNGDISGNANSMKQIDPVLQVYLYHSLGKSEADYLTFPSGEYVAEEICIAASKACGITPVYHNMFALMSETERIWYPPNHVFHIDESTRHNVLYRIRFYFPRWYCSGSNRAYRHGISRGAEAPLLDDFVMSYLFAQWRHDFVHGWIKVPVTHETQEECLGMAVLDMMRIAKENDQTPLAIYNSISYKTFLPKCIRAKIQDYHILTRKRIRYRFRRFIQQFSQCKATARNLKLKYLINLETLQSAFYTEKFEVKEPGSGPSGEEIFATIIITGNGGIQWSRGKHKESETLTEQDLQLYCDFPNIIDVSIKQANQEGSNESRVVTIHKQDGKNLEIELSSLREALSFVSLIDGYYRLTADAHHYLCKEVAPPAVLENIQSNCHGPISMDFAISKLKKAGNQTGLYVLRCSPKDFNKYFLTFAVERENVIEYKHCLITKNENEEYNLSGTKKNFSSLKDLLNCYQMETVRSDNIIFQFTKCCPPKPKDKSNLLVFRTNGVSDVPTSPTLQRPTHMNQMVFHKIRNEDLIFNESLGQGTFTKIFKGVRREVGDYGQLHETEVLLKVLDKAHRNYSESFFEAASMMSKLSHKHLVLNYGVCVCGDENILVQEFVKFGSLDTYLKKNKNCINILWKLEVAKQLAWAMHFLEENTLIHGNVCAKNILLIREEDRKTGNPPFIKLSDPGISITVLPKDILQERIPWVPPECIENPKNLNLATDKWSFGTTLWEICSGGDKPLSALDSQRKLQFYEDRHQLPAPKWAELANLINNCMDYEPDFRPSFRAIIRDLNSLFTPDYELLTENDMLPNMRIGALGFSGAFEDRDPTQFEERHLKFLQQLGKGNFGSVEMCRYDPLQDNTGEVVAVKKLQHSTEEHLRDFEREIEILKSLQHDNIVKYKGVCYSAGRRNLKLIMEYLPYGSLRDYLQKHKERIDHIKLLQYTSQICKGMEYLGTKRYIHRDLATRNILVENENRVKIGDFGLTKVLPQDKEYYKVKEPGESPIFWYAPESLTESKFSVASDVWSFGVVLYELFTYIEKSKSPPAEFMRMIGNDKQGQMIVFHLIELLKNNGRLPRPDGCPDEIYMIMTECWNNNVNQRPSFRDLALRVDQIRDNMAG

Row | Sequence | phosphorylation enrichment
1 | GGDAVYTNGTI [RFX2_Y82_A86T] | 0.667
2 | PPKFFDTRKLL [CYBB_Y41_Y41D] | 0.663
3 | TRVMEYISRLD [CLTCL1_Y1043] | 0.637
4 | VTQEQYELYCE [CBL_Y368] | 1.17
5 | PSAELYSYALP [PDGFRB_Y716_N718Y] | 0.947
6 | TLKDVCDDGKY [RPS6KA3_Y483_Y483C] | 0.841
7 | TVHCDYLNISH [TAF1L_Y1385_P1389S] | 1.29
8 | EYKDAYKFAAD [BRDT_Y335] | 0.722
9 | KKIMGYSIRTI [IDS_Y490_I485K] | 0.537
10 | FADIAYSFRHG [PAH_Y166_N167S_YF] | 0.422
11 | GRVLGYGAFGK [FLT4_Y853] | 0.662
12 | GLNKGYRMVVN [HINT1_Y94] | 0.403
13 | SDVCMYRKNIF [SYNE2_Y570_YF] | 0.931
14 | AERKLYSGAQT [ZAP70_Y178] | 0.412
15 | GENTMYAQVFN [LY9_Y603] | 0.803
16 | QKDTFYGLRSL [IGSF10_Y126] | 1
17 | SVSNNYIQTLG [CTNND1_Y174] | 0.508

Row | Sequence | phosphorylation enrichment
18 | QRVLLYVQRET [GRHL3_Y518_R520Q] | 1.89
19 | EFLQKYKGFKI [SYNE1_Y6953_YF] | 0.775
20 | PIAPVYAPSMV [ACAT1_Y331_A333P] | 0.738
21 | NDLMEYAKQHG [ASS1_Y163] | 0.856
22 | FMKEPYIQSRF [HIPK4_Y175_V171M_YF] | 0.807
23 | IQSAKYDMAED [TTC21B_Y1213] | 1.2
24 | KLSHLYQDHMQ [WNT5A_Y86_C83S] | 0.712
25 | FPPDGYSRHFE [CTNND1_Y213_YF] | 0.62
26 | AELVPYFMEHH [PTPN11_Y80_Q79P_YF] | 1.02
27 | EYFDGYWGYSV [ITGA2B_Y265] | 12.3
28 | FLNSSYINIST [IL23R_Y178_T175N_YF] | 0.663
29 | WIPIQYPIISE [NOG_Y222] | 0.622
30 | FDKPVYQKTTE [LDLR_Y828_N825K] | 0.691
31 | TRSFDYTEGGD [FGF7_Y58_M59T_YF] | 0.975
32 | SASRSYSRSRS [SRRM4_Y549] | 0.58
33 | LGNFNYEQRGA [API5_Y497] | 0.919

Each sequence was assayed on AncSZ in the same assay as above.

Row | Sequence | phosphorylation enrichment
34 | GGDAVYTNGTI [RFX2_Y82_A86T] | 0.778
35 | PPKFFDTRKLL [CYBB_Y41_Y41D] | 0.992
36 | TRVMEYISRLD [CLTCL1_Y1043] | 0.762
37 | VTQEQYELYCE [CBL_Y368] | 1.75
38 | PSAELYSYALP [PDGFRB_Y716_N718Y] | 3.71
39 | TLKDVCDDGKY [RPS6KA3_Y483_Y483C] | 0.93
40 | TVHCDYLNISH [TAF1L_Y1385_P1389S] | 1.1
41 | EYKDAYKFAAD [BRDT_Y335] | 0.984
42 | KKIMGYSIRTI [IDS_Y490_I485K] | 0.625
43 | FADIAYSFRHG [PAH_Y166_N167S_YF] | 0.62
44 | GRVLGYGAFGK [FLT4_Y853] | 0.431
45 | GLNKGYRMVVN [HINT1_Y94] | 0.531
46 | SDVCMYRKNIF [SYNE2_Y570_YF] | 0.906
47 | AERKLYSGAQT [ZAP70_Y178] | 0.504
48 | GENTMYAQVFN [LY9_Y603] | 0.912
49 | QKDTFYGLRSL [IGSF10_Y126] | 0.73
50 | SVSNNYIQTLG [CTNND1_Y174] | 0.606

Row | Sequence | phosphorylation enrichment
51 | QRVLLYVQRET [GRHL3_Y518_R520Q] | 1.82
52 | EFLQKYKGFKI [SYNE1_Y6953_YF] | 0.773
53 | PIAPVYAPSMV [ACAT1_Y331_A333P] | 1.35
54 | NDLMEYAKQHG [ASS1_Y163] | 0.852
55 | FMKEPYIQSRF [HIPK4_Y175_V171M_YF] | 0.54
56 | IQSAKYDMAED [TTC21B_Y1213] | 1.21
57 | KLSHLYQDHMQ [WNT5A_Y86_C83S] | 0.794
58 | FPPDGYSRHFE [CTNND1_Y213_YF] | 0.606
59 | AELVPYFMEHH [PTPN11_Y80_Q79P_YF] | 0.913
60 | EYFDGYWGYSV [ITGA2B_Y265] | 3.58
61 | FLNSSYINIST [IL23R_Y178_T175N_YF] | 0.652
62 | WIPIQYPIISE [NOG_Y222] | 0.782
63 | FDKPVYQKTTE [LDLR_Y828_N825K] | 0.684
64 | TRSFDYTEGGD [FGF7_Y58_M59T_YF] | 1.23
65 | SASRSYSRSRS [SRRM4_Y549] | 0.635
66 | LGNFNYEQRGA [API5_Y497] | 0.761

These sequences were tested against MERTK (UniProt Q12866) in the same assay as above.
MERTK, sequence (Q12866 whole entry, looked up): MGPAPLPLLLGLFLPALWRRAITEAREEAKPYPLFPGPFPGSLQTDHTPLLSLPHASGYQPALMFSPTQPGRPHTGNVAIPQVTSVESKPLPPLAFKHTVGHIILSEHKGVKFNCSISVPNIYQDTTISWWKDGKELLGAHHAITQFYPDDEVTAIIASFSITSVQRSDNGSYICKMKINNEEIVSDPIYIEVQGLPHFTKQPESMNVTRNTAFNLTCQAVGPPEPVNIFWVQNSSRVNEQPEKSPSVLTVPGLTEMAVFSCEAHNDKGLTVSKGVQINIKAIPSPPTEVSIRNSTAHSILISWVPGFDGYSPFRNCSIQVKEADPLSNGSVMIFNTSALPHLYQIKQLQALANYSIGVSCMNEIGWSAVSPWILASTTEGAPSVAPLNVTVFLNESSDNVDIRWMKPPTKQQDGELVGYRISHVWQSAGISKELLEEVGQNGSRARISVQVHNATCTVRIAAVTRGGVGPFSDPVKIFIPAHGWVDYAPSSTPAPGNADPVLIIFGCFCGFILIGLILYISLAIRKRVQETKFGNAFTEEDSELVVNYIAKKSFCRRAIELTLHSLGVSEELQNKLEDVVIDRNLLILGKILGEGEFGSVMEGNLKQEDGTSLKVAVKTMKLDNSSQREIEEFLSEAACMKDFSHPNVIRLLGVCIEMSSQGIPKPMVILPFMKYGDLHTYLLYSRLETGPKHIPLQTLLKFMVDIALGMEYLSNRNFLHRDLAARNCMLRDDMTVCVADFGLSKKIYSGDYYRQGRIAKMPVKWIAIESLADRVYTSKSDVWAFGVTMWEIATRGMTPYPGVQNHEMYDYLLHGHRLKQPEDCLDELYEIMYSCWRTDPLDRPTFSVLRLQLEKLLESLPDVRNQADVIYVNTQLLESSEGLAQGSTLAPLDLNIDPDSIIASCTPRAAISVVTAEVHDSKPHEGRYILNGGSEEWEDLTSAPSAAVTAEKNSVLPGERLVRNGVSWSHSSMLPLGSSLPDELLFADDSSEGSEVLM

Row | Sequence | phosphorylation enrichment
67 | GGDAVYTNGTI [RFX2_Y82_A86T] | 0.391
68 | PPKFFDTRKLL [CYBB_Y41_Y41D] | 0.796
69 | TRVMEYISRLD [CLTCL1_Y1043] | 0.325
70 | VTQEQYELYCE [CBL_Y368] | 0.571
71 | PSAELYSYALP [PDGFRB_Y716_N718Y] | 16.8
72 | TLKDVCDDGKY [RPS6KA3_Y483_Y483C] | 0.437
73 | TVHCDYLNISH [TAF1L_Y1385_P1389S] | 0.373
74 | EYKDAYKFAAD [BRDT_Y335] | 0.475
75 | KKIMGYSIRTI [IDS_Y490_I485K] | 0.366
76 | FADIAYSFRHG [PAH_Y166_N167S_YF] | 0.33
77 | GRVLGYGAFGK [FLT4_Y853] | 0.339
78 | GLNKGYRMVVN [HINT1_Y94] | 0.303
79 | SDVCMYRKNIF [SYNE2_Y570_YF] | 0.448
80 | AERKLYSGAQT [ZAP70_Y178] | 0.414
81 | GENTMYAQVFN [LY9_Y603] | 2.18
82 | QKDTFYGLRSL [IGSF10_Y126] | 0.552
83 | SVSNNYIQTLG [CTNND1_Y174] | 0.621

Row | Sequence | phosphorylation enrichment
84 | QRVLLYVQRET [GRHL3_Y518_R520Q] | 0.452
85 | EFLQKYKGFKI [SYNE1_Y6953_YF] | 0.395
86 | PIAPVYAPSMV [ACAT1_Y331_A333P] | 4.7
87 | NDLMEYAKQHG [ASS1_Y163] | 0.426
88 | FMKEPYIQSRF [HIPK4_Y175_V171M_YF] | 0.452
89 | IQSAKYDMAED [TTC21B_Y1213] | 0.484
90 | KLSHLYQDHMQ [WNT5A_Y86_C83S] | 0.437
91 | FPPDGYSRHFE [CTNND1_Y213_YF] | 0.372
92 | AELVPYFMEHH [PTPN11_Y80_Q79P_YF] | 0.463
93 | EYFDGYWGYSV [ITGA2B_Y265] | 2.87
94 | FLNSSYINIST [IL23R_Y178_T175N_YF] | 0.415
95 | WIPIQYPIISE [NOG_Y222] | 0.343
96 | FDKPVYQKTTE [LDLR_Y828_N825K] | 0.473
97 | TRSFDYTEGGD [FGF7_Y58_M59T_YF] | 0.503
98 | SASRSYSRSRS [SRRM4_Y549] | 0.589
99 | LGNFNYEQRGA [API5_Y497] | 0.392

What follows are sequences tested on c-Src in the same assay as above.

Row | Sequence | phosphorylation enrichment
100 | GGDAVYTNGTI [RFX2_Y82_A86T] | 1.32
101 | PPKFFDTRKLL [CYBB_Y41_Y41D] | 0.614
102 | TRVMEYISRLD [CLTCL1_Y1043] | 0.358
103 | VTQEQYELYCE [CBL_Y368] | 0.892
104 | PSAELYSYALP [PDGFRB_Y716_N718Y] | 5.38
105 | TLKDVCDDGKY [RPS6KA3_Y483_Y483C] | 0.507
106 | TVHCDYLNISH [TAF1L_Y1385_P1389S] | 0.588
107 | EYKDAYKFAAD [BRDT_Y335] | 0.495
108 | KKIMGYSIRTI [IDS_Y490_I485K] | 0.364
109 | FADIAYSFRHG [PAH_Y166_N167S_YF] | 0.64
110 | GRVLGYGAFGK [FLT4_Y853] | 0.41
111 | GLNKGYRMVVN [HINT1_Y94] | 0.34
112 | SDVCMYRKNIF [SYNE2_Y570_YF] | 0.436
113 | AERKLYSGAQT [ZAP70_Y178] | 0.383
114 | GENTMYAQVFN [LY9_Y603] | 2.38
115 | QKDTFYGLRSL [IGSF10_Y126] | 0.807
116 | SVSNNYIQTLG [CTNND1_Y174] | 0.445

Row | Sequence | phosphorylation enrichment
117 | QRVLLYVQRET [GRHL3_Y518_R520Q] | 0.57
118 | EFLQKYKGFKI [SYNE1_Y6953_YF] | 0.397
119 | PIAPVYAPSMV [ACAT1_Y331_A333P] | 8.41
120 | NDLMEYAKQHG [ASS1_Y163] | 0.437
121 | FMKEPYIQSRF [HIPK4_Y175_V171M_YF] | 0.474
122 | IQSAKYDMAED [TTC21B_Y1213] | 0.513
123 | KLSHLYQDHMQ [WNT5A_Y86_C83S] | 0.406
124 | FPPDGYSRHFE [CTNND1_Y213_YF] | 0.472
125 | AELVPYFMEHH [PTPN11_Y80_Q79P_YF] | 0.883
126 | EYFDGYWGYSV [ITGA2B_Y265] | 7.52
127 | FLNSSYINIST [IL23R_Y178_T175N_YF] | 0.317
128 | WIPIQYPIISE [NOG_Y222] | 0.354
129 | FDKPVYQKTTE [LDLR_Y828_N825K] | 0.506
130 | TRSFDYTEGGD [FGF7_Y58_M59T_YF] | 0.431
131 | SASRSYSRSRS [SRRM4_Y549] | 0.588
132 | LGNFNYEQRGA [API5_Y497] | 0.43

Source: the supplement of paper PMC10065799, “High-throughput profiling of sequence recognition by tyrosine kinases and SH2 domains using bacterial peptide display” (eLife, 2023)
